The experiment deals with human H3.1/H4 tetramer (ITC sample) (human) (UniProt P68431). The experiment in a line: ITC. In general terms: In ITC the heat of successive injections is recorded.

The record followed here is article PMC7449674.

Usually Kd stands for the constant that tells how readily two partners part at equilibrium. The substance “mouse POLA1 N1 fragment (ITC sample) (from UniProt P33609 1-110) (domain or fragment)” yielded an equilibrium dissociation constant (Kd) of 7.9 µM.
